# Results taken from patent US7553821B2, “Methods for selectively modulating survivin apoptosis pathways” (Yale University, priority 2000, dated 2009).
# Residues, ends and D or L forms follow the SMILES beside them. *: point of attachment. Cbz = O=C(OCc1ccccc1)*; CH2F = FC*
# B1: caspase-9(C287A): caspase 9 dominant negative mutant (Cys287→Ala) (protein, UniProt P55211 1-416, looked up, variant C287A)
# chain: MDEADRRLLRRCRLRLVEELQVDQLWDALLSRELFRPHMIEDIQRAGSGSRRDQARQLIIDLETRGSQALPLFISCLEDTGQDMLASFLRTNRQAAKLSKPTLENLTPVVLRPEIRKPEVLRPETPRPVDIGSGGFGDVGALESLRGNADLAYILSMEPCGHCLIINNVNFCRESGLRTRTGSNIDCEKLRRRFSSLHFMVEVKGDLTAKKMVLALLELAQQDHGALDCCVVVILSHGCQASHLQFPGAVYGTDGCPVSVEKIVNIFNGTSCPSLGGKPKLFFIQAAGGEQKDHGFEVASTSPEDESPGSNPEPDATPFQEGLRTFDQLDAISSLPTPSDIFVSYSTFPGFVSWRDPKSGSWYVETLDDIFEQWAHSEDLQSLLLRVANAVSVKGIYKQMPGCFNFLRKKLFFKTS
# B2: caspase-8(C360S): caspase-8 dominant negative mutant obtained from Dr. V. Dixit (protein, UniProt Q14790 1-479, looked up, variant C360S)
# chain: MDFSRNLYDIGEQLDSEDLASLKFLSLDYIPQRKQEPIKDALMLFQRLQEKRMLEESNLSFLKELLFRINRLDLLITYLNTRKEEMERELQTPGRAQISAYRVMLYQISEEVSRSELRSFKFLLQEEISKCKLDDDMNLLDIFIEMEKRVILGEGKLDILKRVCAQINKSLLKIINDYEEFSKERSSSLEGSPDEFSNGEELCGVMTISDSPREQDSESQTLDKVYQMKSKPRGYCLIINNHNFAKAREKVPKLHSIRDRNGTHLDAGALTTTFEELHFEIKPHDDCTVEQIYEILKIYQLMDHSNMDCFICCILSHGDKGIIYGTDGQEAPIYELTSQFTGLKCPSLAGKPKVFFIQASQGDNYQKGIPVETDSEEQPYLEMDLSSPQTRYIPDEADFLLGMATVNNCVSYRNPAEGTWYIQSLCQSLRERCPRGDDILTILTEVNYEVSNKDDKKNMGKQMPQPTFTLRKKLVFPSD
# Tests used:
# [1] = tested on: HeLa cells; assay: Nuclear morphology of apoptosis (DAPI) in transfected HeLa cells; assay type: cell-based; conditions: for HeLa cell apoptosis induced by survivin(T34A), effect of co-transfected dominant negative caspase: co-transfection
# From the text: HeLa cells transfected with GFP-vector (vector), GFP-survivin(T34A) (T34A), or GFP-caspase-9 (Met^1-Asp^330) (caspase-9), were scored morphologically for nuclear integrity by DAPI staining after 48-h. Arrows, nuclear fragmentation and chromatin condensation in GFP-expressing cells.
# The experimental procedures are the same as in A. Data are the meaνSEM of four independent experiments.
# HeLa cells were transfected with the various indicated combinations of GFP-constructs, with or without etoposide (10 μg/ml) or TNFα (10 ng/ml) plus cycloheximide (10 μg/ml), harvested after 48 h, and GFP-labeled cells were morphologically scored for nuclear fragmentation by DAPI staining, as described in FIG. 2B. DN, dominant negative. Data are the mea±SEM of four independent experiments.
# Transfection experiments. For transient transfection, HeLa cells in C-6 tissue culture plates (Costar, Cambridge, Mass.) at ˜60-70% confluency, were incubated in 1 ml of serum-free OptiMEM medium (Life Technologies, Gaithersburg, Md.) for 20 min, and transfected with 2.5 μg of the various plasmid cDNAs plus 9 μl Lipofectamine (Life Technologies). After a 5 h incubation at 37° C., the mixture was aspirated and substituted with complete growth medium for 48-72 h. To generate stable YUSAC-2 transfectants, a survivin(T34A) cDNA was inserted into the HindIII-SpeI sites of the pTet-splice vector (Dr. D. Schatz, Yale University School of Medicine), downstream of the regulatory sequences of the Tet-resistance operon (TetO). YUSAC-2 cells were transfected with 0.8 μg pTet-T34A, 0.8 μg of the transactivation/selection plasmid ptTA-Neo and 5 μl Lipofectamine in 1 ml of OptiMem. Forty-eight h after transfection, cells were re-plated at low density in 15×150 mm plates in growth medium containing 1.5 mg/ml Geneticin (G418, Life Technologies), 2 mM sodium hydroxide and 0.5 μg/ml Tet (Sigma, St. Louis, Mo.) (selection medium). After a 3-week culture, ninety-six individual clones were screened for differential growth in the presence or absence of Tet. […] Flow cytometry. HeLa cells transfected with the various GFP constructs in the presence or in the absence of the broad-spectrum caspase inhibitor Z-VAD-fmk (20 μM) were harvested after 48-h (non-adherent and adherent cells), washed in PBS, pH 7.0, and fixed in cold 70% ethanol for 30 min on ice. After washes in PBS, cells (10×10^6/ml) were stained with 25 μg/ml propidium iodide (Sigma), 0.05% Triton X-100 and 100 μg/ml RNAse A (Boehringer Mannheim, Indianapolis, Ind.) for 45 min at 22° C. Gated GFP-expressing cells were analyzed for DNA content by flow cytometry on a FACSort (Becton Dickinson, San Jose, Calif.) using a Cell Quest software. In other experiments, F5-C4 cells were synchronized at the G1/S boundary by culture with 5-mM thymidine for 16 h at 37° C., in the presence or in the absence of Tet. At the end of the incubation, cells were released from the thymidine block, and harvested at 3-h intervals for DNA content analysis by propidium iodide staining and flow cytometry, or, alternatively, for caspase-9 processing by Western blotting (see below). TUNEL staining. Internucleosomal DNA fragmentation of F5.C4 cells in the presence or in the absence of Tet was carried out by end-labeling with terminal deoxynucleotidyl transferase (TdT) and peroxidase-conjugated anti-digoxigenin antibody using the ApopTag kit (Intergen, Purchase, N.Y.), as described previously (Grossman et al., 1999). Immunoprecipitation and Western blotting. Asynchronously growing or synchronized HeLa cells were lysed in 200 μl of lysis buffer containing 50 mM Tris, pH 7.5, 1% NP-40, 0.25% DOC, 150 mM NaCl, 1 mM PMSF, 10 μg/ml aprotinin, 10 μg/ml leupeptin, 10 μg/ml pepstatin, 1 mM Na3VO4, 20 mM NaF, 0.2 mM EGTA, 1 mM EDTA, pH 8.0, for 30 min at 4° C. Insoluble material was removed by centrifugation at 14,000 rpm for 15 min, and two-hundred μg of protein lysate was pre-absorbed with 25 μl of a 50:50 Protein A Sepharose slurry (Pharmacia) for 3 h at 4° C. with constant agitation. […]
# [2] = tested on: HeLa cells; assay: DNA content by propidium iodide staining and flow cytometry in transfected HeLa cells; assay type: cell-based; conditions: inhibitor 20 μM, 48 h
# Protocol: HeLa cells were transfected with GFP-survivin(T34A) in the presence or in the absence of 20 μM of the caspase inhibitor, Z-VAD-fmk. Gated GFP-expressing cells were analyzed 48 h after transfection for DNA content by propidium iodide staining and flow cytometry. The percentages of apoptotic cells with sub-G1 (hypodiploid) […] DNA content are indicated. Apoptotic HeLa cells in GFP-vector transfectants were 8%. Data are representative of one experiment out of at least three independent determinations.
# Transfection experiments. For transient transfection, HeLa cells in C-6 tissue culture plates (Costar, Cambridge, Mass.) at ˜60-70% confluency, were incubated in 1 ml of serum-free OptiMEM medium (Life Technologies, Gaithersburg, Md.) for 20 min, and transfected with 2.5 μg of the various plasmid cDNAs plus 9 μl Lipofectamine (Life Technologies). After a 5 h incubation at 37° C., the mixture was aspirated and substituted with complete growth medium for 48-72 h. To generate stable YUSAC-2 transfectants, a survivin(T34A) cDNA was inserted into the HindIII-SpeI sites of the pTet-splice vector (Dr. D. Schatz, Yale University School of Medicine), downstream of the regulatory sequences of the Tet-resistance operon (TetO). […] Gated GFP-expressing cells were analyzed for DNA content by flow cytometry on a FACSort (Becton Dickinson, San Jose, Calif.) using a Cell Quest software. […]
molecule,measurement,setting,value
"Leu^64ÕAla: another survivin point mutant in the Baculovirus IAP repeat (BIR), control [reference compound]",ability to induce spontaneous apoptosis upon transient transfection,[1]; survivin BIR domain mutants,did not cause apoptosis
"COC(=O)C[C@H](NC(=O)[C@H](C)NC(=O)[C@@H](NC(=O)OCc1ccccc1)C(C)C)C(=O)CF [Z-VAD-fmk, reference compound] (Cbz-Val-Ala-Asp(OMe)-CH2F)",effect on sub-G1 DNA content induced by GFP-survivin(T34A),[2],reversed
B1,"HeLa cell apoptosis induced by survivin(T34A), effect of co-transfected dominant negative caspase",[1]; 48 h,reversed HeLa cell apoptosis induced by survivin(T34A) to background levels
same,nuclear fragmentation and chromatin condensation induced by etoposide,"[1]; etoposide 10 μg/ml, 48 h",inhibited
B2,cell death induced by TNFα/cycloheximide,"[1]; TNFα 10 ng/ml plus cycloheximide 10 μg/ml, 48 h",completely inhibited
same,"HeLa cell apoptosis induced by survivin(T34A), effect of co-transfected dominant negative caspase",[1]; 48 h,did not reduce apoptosis
